Assay [1] deals with T1, recombinant human p21cip1 (human, UniProt P38936 1-164).
T1 construct: In the functional row this molecule stands for p21cip1 endogenous in human myoblasts; source: recombinant, purified
Nature of the assay: pull-down; MBP-tagged Akt2 peptides bound to amylose resin, incubated with p21 (1 µg and 5 µg), extensively washed, maltose-fusion peptides eluted, blotted with anti-p21. Conditions: both partners purified.

Assay [2] deals with T1, recombinant human p21cip1. Nature of the assay: pull-down; purified His-tagged Akt2 proteins and His-tagged p21cip1 incubated together on ice; p21cip1 immunoprecipitated with anti-p21; immunoprecipitates probed for Akt2 by Western blot. As to conditions: both partners purified. A general note: A western blot detects proteins with antibodies after separation by electrophoresis.

T1 sequence (P38936 whole entry): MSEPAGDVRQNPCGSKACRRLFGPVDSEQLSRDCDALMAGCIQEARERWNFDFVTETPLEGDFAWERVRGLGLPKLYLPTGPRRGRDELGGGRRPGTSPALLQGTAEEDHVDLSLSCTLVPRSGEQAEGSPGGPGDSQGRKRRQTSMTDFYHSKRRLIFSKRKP

B1: Akt2 (420–445) maltose binding fusion protein (domain or fragment, human, UniProt P31751 420-445, looked up)
chain: KKLLPPFKPQVTSEVDTRYFDDEFTA
notes: The methods name no vector for this construct
On to B1, for which the binding result in assay [1] is on record as “binds”.

B2: Akt2 (400–481) (domain or fragment, human, UniProt P31751 400-481, looked up)
chain: AKEVMEHRFFLSINWQDVVQKKLLPPFKPQVTSEVDTRYFDDEFTAQSITITPPDRYDSLGLLELDQRTHFPQFSYSASIRE
notes: The tag is therefore uncertain; source: expressed in bacteria, purified; not shown: His6, C-terminal, kept
As for B2, the binding result in assay [2] is recorded as “binds”.

B3: Akt2 (350–481) (domain or fragment, human, UniProt P31751 350-481, looked up)
chain: FYNQDHERLFELILMEEIRFPRTLSPEAKSLLAGLLKKDPKQRLGGGPSDAKEVMEHRFFLSINWQDVVQKKLLPPFKPQVTSEVDTRYFDDEFTAQSITITPPDRYDSLGLLELDQRTHFPQFSYSASIRE
notes: as for B2
Consider B3, for which the binding result in assay [2] is “binds”.

B4: Akt2 (400–445) maltose binding fusion protein (domain or fragment, human, UniProt P31751 400-445, looked up)
chain: AKEVMEHRFFLSINWQDVVQKKLLPPFKPQVTSEVDTRYFDDEFTA
notes: as for B1
For B4, the binding result in assay [1] is recorded as “binds”.

Values taken from publication PMC3806761, “Characterization of the Akt2 Domain Essential for Binding Nuclear p21cip1 to Promote Cell Cycle Arrest during Myogenic Differentiation” (PLoS ONE, 2013).
